In paper PMC11602552 (The Journal of Experimental Medicine, 2024):

Target: wild type eIF6 (eIF6^WT), purified (UniProt O55135 1-245)
Assay: SPR

B1: Nsun2, purified (enzyme)
chain: MGRRARGRRFQQPPQPEGEEDASDGGRKRGQAGWEGGYPEIVKENKLFEHYYQELKIVPEGEWDQFMESLREPLPATLRITGYKSHAKEILHCLKNKYFKELEDLEVDGQKVEVPQPLSWYPEELAWHTNLSRKILRKSPLLAKFHQFLVSETESGNISRQEAVSMIPPLLLNVEPHHKILDMCAAPGSKTTQLIEMLHADMSVPFPEGFVIANDVDNKRCYLLVHQAKRLSSPCIMVVNHDASSIPRLTVDVDGRKEILFYDRILCDVPCSGDGTMRKNIDVWKKWTTLNSLQLHGLQLRIATRGAEQLAEGGRMVYSTCSLNPVEDEAVIAALLEKSEGALELADVSAELPGLKWMPGVSQWKVMTRDGQWFADWHEVPQGRHTQIRPTMFPPTDLEKLQAMHLERCLRILPHHQNTGGFFVAVLVKKAPMPWNKRQPKVQNKSAEAREPRVSSHVAATEGNPSDQSELESQMITGAGDSETAHNTENTESNEKKDGVCGPPPSKKMKLFGFKEDPFVFIPEDDPLFPPIEKFYALDPSFPRMNLLTRTTEGKKRQLYMVSKELRNVLLNNSEKMKVINTGIKVWCRNNSGEEFDCAFRLAQEGIYTLYPFINSRIITVSMEDVKTLLTQENPFFRKLSSEAYSQVKDLAKGSVVLKYEPDSANPDTLQCPIVLCGWRGKASIRTFVPKNERLHYLRMMGLEVLGEKKKEGVILTNENAASPEQPGDEDAKQTAQDPCVPDSVPGCDAAAAEPSR
- Kd: 1470 nM
